9 molecules from patent US20220204643A1 (published 2022) can be followed below.

The target in one assay is T1, extended synaptotagmin 2 (human, UniProt A0FGR8 564-921).
T1 construct: on protein array; also called ESYT2_frag
T1 sequence: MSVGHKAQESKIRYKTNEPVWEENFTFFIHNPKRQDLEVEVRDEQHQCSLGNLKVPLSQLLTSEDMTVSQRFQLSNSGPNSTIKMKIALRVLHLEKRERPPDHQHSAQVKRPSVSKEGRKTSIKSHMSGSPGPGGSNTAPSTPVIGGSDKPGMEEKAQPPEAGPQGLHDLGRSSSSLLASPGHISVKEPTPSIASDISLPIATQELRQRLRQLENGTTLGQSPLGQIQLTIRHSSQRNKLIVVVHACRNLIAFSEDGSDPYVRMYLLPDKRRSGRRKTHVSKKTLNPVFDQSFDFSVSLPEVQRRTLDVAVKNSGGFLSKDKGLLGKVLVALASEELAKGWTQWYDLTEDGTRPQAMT
Nature of the assay: protein array.

Assay [1] addresses T2, sorting nexin 33, transcript variant 1 (human, UniProt Q8WV41 1-574).
T2 construct: on protein array; also called SNX33
T2 sequence: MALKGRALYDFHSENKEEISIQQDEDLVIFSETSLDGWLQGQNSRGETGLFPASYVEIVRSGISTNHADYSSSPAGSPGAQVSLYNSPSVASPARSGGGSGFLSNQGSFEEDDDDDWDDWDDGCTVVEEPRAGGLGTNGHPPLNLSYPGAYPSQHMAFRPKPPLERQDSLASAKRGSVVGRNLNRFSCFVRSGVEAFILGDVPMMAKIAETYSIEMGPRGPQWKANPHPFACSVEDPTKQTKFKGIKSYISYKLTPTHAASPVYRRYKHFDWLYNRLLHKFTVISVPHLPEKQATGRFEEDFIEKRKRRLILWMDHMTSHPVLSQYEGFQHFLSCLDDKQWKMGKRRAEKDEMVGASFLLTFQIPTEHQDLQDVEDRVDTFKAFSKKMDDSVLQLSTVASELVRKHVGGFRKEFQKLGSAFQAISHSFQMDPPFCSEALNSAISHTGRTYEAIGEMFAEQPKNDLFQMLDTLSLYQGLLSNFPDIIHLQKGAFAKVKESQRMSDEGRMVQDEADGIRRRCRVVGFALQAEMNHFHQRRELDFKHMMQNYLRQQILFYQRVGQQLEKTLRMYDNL
Nature of the assay: protein array.

The target in assay [2] is T3, SNAP associated protein, transcript variant 1 (human, UniProt O95295 2-136).
T3 construct: on protein array; also called SNAPIN
T3 sequence: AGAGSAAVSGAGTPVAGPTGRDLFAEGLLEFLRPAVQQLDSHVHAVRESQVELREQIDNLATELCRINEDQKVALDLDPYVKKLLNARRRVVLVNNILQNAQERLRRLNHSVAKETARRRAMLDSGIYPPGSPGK
Nature of the assay: protein array.

The target of assay [3] is T4, KH RNA binding domain containing, signal transduction associated 2, transcript variant 2 (human, UniProt Q5VWX1 1-349).
T4 construct: on protein array; also called KHDRBS2
T4 sequence: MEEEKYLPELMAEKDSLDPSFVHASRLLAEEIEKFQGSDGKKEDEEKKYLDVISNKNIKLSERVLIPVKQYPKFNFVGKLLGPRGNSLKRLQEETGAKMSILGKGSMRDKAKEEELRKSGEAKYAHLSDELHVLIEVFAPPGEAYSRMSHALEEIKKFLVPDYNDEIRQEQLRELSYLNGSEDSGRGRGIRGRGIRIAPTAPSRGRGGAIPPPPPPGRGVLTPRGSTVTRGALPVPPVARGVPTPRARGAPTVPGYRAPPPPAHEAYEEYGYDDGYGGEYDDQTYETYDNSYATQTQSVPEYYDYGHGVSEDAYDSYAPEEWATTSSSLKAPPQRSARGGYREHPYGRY
Description: protein array.

In assay [4] the target is T5, nucleosome assembly protein 1 like 1, transcript variant 1 (human, UniProt P55209 2-388).
T5 construct: on protein array; also called NAP1L1
T5 sequence: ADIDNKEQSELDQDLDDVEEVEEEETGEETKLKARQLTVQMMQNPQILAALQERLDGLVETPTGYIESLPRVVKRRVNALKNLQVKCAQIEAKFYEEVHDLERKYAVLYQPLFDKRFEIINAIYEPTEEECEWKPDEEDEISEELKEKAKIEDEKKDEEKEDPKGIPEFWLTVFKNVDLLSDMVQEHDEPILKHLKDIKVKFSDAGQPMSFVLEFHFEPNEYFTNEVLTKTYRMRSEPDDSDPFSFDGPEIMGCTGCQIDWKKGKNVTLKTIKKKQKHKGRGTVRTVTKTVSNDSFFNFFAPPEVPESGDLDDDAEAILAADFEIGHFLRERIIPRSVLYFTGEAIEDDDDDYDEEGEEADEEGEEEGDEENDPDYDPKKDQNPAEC
Nature of the assay: protein array.

The next assay deals with T6, LN608403.1_frag (human).
T6 construct: on protein array
T6 chain: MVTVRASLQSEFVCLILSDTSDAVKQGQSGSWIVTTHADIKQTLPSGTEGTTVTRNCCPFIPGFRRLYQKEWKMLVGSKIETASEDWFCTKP
Nature of the assay: protein array.

In assay [5] the target is T7, JPX transcript, XIST activator (human).
T7 construct: on protein array
T7 chain: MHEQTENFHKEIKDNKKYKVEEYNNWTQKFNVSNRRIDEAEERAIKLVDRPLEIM
Description: protein array.

Assay [6] concerns the target T8, TruB pseudouridine synthase family member 1 (human, UniProt Q8WWH5 2-349).
T8 construct: on protein array; also called TRUB1
T8 sequence: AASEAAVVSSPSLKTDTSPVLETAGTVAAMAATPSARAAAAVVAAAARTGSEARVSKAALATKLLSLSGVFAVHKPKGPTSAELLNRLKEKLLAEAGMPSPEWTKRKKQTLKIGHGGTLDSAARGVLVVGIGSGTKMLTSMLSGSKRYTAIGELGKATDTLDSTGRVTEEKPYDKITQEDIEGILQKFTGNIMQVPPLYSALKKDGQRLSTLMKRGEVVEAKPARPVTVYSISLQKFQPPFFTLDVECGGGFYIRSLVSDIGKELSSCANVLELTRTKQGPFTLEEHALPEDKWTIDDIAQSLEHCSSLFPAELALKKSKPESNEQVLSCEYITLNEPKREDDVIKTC
Nature of the assay: protein array.

For assay [7], the target named is T9, phospholipid scramblase 4, transcript variant X4 (human, UniProt Q9NRQ2 1-329).
T9 construct: on protein array; also called PLSCR4
T9 chain: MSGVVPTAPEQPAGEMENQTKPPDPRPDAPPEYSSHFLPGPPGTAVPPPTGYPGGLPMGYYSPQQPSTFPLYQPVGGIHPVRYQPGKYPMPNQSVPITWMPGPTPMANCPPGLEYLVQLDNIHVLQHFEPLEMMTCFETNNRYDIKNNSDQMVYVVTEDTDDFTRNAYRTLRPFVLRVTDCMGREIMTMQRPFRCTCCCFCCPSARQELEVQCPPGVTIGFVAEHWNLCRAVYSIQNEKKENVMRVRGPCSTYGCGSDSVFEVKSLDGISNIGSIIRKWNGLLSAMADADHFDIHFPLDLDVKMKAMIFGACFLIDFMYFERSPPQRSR
Description: protein array.

Assay [8] has as its target T10, UTP6 small subunit processome component (human, UniProt Q9NYH9 1-597).
T10 sequence: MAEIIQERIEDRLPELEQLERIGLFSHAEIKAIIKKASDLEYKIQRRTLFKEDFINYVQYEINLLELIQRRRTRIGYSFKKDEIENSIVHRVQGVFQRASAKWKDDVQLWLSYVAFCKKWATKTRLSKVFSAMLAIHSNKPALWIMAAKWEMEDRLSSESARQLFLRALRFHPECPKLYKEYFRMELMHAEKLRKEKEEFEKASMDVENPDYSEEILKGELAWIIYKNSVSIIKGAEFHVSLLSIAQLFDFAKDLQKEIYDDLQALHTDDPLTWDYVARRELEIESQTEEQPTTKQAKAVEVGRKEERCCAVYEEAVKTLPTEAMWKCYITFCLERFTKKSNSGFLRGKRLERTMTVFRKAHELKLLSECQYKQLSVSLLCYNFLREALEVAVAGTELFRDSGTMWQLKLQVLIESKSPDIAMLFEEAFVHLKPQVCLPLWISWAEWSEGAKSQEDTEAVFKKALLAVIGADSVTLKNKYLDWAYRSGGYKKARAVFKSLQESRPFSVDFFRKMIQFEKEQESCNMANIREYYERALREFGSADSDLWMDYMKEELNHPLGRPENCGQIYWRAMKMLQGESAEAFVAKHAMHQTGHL

Assay [9] deals with T11, nudE neurodevelopment protein 1, transcript variant 1 (human, UniProt Q9NXR1 1-335).
T11 construct: on protein array; also called NDE1
T11 sequence: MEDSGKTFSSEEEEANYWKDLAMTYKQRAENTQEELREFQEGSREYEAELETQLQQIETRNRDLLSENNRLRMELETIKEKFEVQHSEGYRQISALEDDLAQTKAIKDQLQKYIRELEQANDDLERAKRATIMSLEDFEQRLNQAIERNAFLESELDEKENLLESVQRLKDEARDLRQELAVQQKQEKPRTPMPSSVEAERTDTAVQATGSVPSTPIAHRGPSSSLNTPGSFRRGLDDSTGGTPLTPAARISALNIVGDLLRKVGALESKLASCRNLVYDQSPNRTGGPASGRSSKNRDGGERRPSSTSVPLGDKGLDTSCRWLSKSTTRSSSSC
Description: protein array.

B1: TCOL1004 (antibody, V domains shown)
VH: QVQLQESGPGLVKPSQTLSLTCIVSGGSISGDKNFWSWVRQHPEKGLEWLGYISYNGNTYYNPSLISRIIISLDTPKNLFSLRLSSVTVADTAIYYCAREVDIRGDSDAFDIWGRGTVVTVSS
VL: EIVMTQSPATLSVSPGERATLSCRASQSVSTNLAWYQQRPGQAPRLFIFGASTRATGIPARFSGSGSGTEFTLTISSPQPEDSAVYYCQQYTTRPLTFGGGTKVEIKR
notes: VH/VL only
Regarding B1, in the assay with extended synaptotagmin 2, the binding result is reported as “binds”.

B2: TCER1006 (antibody, V domains shown)
VH: EVQLVQSGAEVKKPGESLKISCKGSGYSFTSFWIGWVRQMPGKGLEWMGIIFPADSDTRYSPSFQGQVIISVDKSISTAYLQWSSLKASDTAMYYCARRGVSGGSAWTYYNFFDPWGQGTLVTVAS
VL: PSVLTQPPSVSAAPGQKVTISCSGSSSNIDNNYVSWYQQLPGTAPKLLIYENNKRASGIPDRFSGSKSGTSATLGITGLQTGDEADYYCGTWDSSLSPGGVFGGGTKLTVLG
notes: VH/VL only
For B2, in assay [1], the binding result was “binds”.

B3: TBLA1006 (antibody, V domains shown)
VH: VQLVDSGGGLVQPGRSLRLSCAASGFVFDDYAMHWVRQVPGKGLEWVSGISWNSVSIGYADSVKGRFTISRDNAKNSLYLQMNSLRPEDAALYYCVKSFSAEYYYYYYGMDVWGQGTTVTVSS
VL: LYVLTQPPSVSVAPGTTAWISCGGNNIGIKSVHWYQQKPGQAPLLVISYDSDRPSVIPERFSVSNSGNTVTLTISRVEAGDEADYYCQVWDNGHSHWVFGGGTKLTVLG
notes: VH/VL only
Regarding B3, the binding result in assay [2] is on record as “binds”.

B4: TCHO1001 (antibody, V domains shown)
VH: PVHLVQSGAEVKKPGSSVKVSCKLSGGIFSYFAIIWVRQAPGQGLEWMGTIIPIFGTSNYAEKFQDRVAIVADEATSTVYMEVNSLRSEDTAIYFCARDSEVEKSDGYMASTAEYFQLWGQGTLVTVSS
VL: not shown
notes: VH/VL only
For the molecule B4, the binding result in [3] is “binds”.

B5: TCER1001 (antibody, V domains shown)
VH: EVQLVESGGGLVQPGRSLRLSCAASGFTFDDYAMHWVRQAPGKGLEWVSGISWNSGSIGYADSVKGRFTISRDNAKNSLYLQMNSLRAEDTALYYCAKDLLGFRDQRNYYGMDVWGQGTTVTVSS
VL: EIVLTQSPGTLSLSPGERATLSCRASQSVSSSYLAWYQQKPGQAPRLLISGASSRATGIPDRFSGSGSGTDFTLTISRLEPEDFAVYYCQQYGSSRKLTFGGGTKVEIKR
notes: VH/VL only
As for B5, the binding result in assay [4] is “binds”.

B6: TBRE1045 (antibody, V domains shown)
VH: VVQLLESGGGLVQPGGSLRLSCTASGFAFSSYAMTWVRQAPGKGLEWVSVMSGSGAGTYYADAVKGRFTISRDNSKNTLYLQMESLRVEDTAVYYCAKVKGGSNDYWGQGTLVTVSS
VL: PYVLTQPPSVSVAPGQTARITCGGNNIGSKSVHWYQQKPGQAPVMVVYADRERPSGIPERLSGSNFGNTATLTISRVEAGDEADYYCQVWDSNNDHREVFGGGTKLTVLG
notes: VH/VL only
B6: the binding result (with LN608403.1_frag; in assay [5]) was “binds” each time.

B7: TCER1003 (antibody, V domains shown)
VH: QITLKESGPTLVKPTQTLTLTCTFSGFSLTTTDVGVGWIRQPPGKALEWLTIIYWDDDERYSPSLKSRLTITKDTSKNQVVLSMTNMDPVDTATYYCARVYSTKWDFDYWGQGTLVTVSS
VL: VSSELTQDPAVSVALGQTVRITCQGDSLRRYYVSWYRQKPGEAPVVVIYGKNNRPSWIPDRLSGSSSGNTASLTITGAQAEDEADYYCCSRDSSGNPWVFGGGTKLTVLG
notes: VH/VL only
Regarding B7, the binding result in assay [6] and in [7] was “binds” throughout.

B8: TUCE1005 (antibody, V domains shown)
VH: QVQLQESGPGLVKPSETLSLTCTVSGGSISSYYWSWIRQPAGKGLEWIGRIYTSGSTNYNPSLKSRVTMSVDTSKNQFSLKMSSVTAADTAVYYCARGELLFDHWGQGTLVTVSS
VL: not shown
Turning to B8, the binding result in assay [8] is listed as “binds”.

B9: TCER1002 (antibody, V domains shown)
VH: QVQLQESGPGLVKPSETLSLSCTVSGASMNNYYWSWIRQSAGKGLEWIGRIYSSGDTDYNPSLKTRVTMSIDTSKNQFSLNLDSVTAADTATYYCARSFYDTLFYFENWGQGTLVTVSS
VL: DIQMTQSPSTLSASVGDRVTITCRASQSISVWLAWYQQKPGKAPKLLIYKASTLEAGVPSRFSGSGSGTEFSLTISGLQPDDFGTYFCQHYDSYPWTFGQGTKVEMK
notes: VH/VL only
For B9, the binding result in [9] is reported as “binds”.
